From patent publication US20240067944A1 (published 2024)

Key:
[1] = target: T1, human plasma-derived FX (Haematologic Technologies Inc, USA) (human, UniProt P00742 41-179; P00742 183-488); experiment: SPR, FX captured on immobilised anti-GLA-FX antibody, steady state analysis, 25 C
T1 construct: also called coagulation Factor X; human FX
Procedure: Briefly, an anti-GLA-FX, prepared recombinantly as described above, was immobilised on a CM4 sensor chip or a Xantec HLC200M using standard amine coupling chemistry at pH 5. 10 nM FX (Haematologic Technologies, USA) was injected at a flow rate of 10 μL/min for 30 seconds. Subsequently 1000, 100, 10, 1, 0.1 and 0 nM of VHH polypeptide compound, according to Table 9, below were injected at a flow rate of 50 μL/min for 200 seconds to allow for binding to FX followed by a flow of 10 minutes with a running buffer (10 mM HEPES, 150 mM NaCl, 5 mM CaCl₂), 0.05% (v/v) Surfactant P20, 1 mg/mL bovine serum albumin, pH 7.4) injection allowing for dissociation from FX. The running buffer was also used for dilution of anti-FX VHH polypeptide compounds. Regeneration of the chip was achieved using a regeneration buffer consisting of 50 mM EDTA in running buffer, 30 seconds contact time, and a 30 μL/min flow rate. The binding data were collected at 25° C. and were analysed according to a 1:1 model using BiaEvaluation 4.1 supplied by the manufacturer (Biacore AB, Uppsala or Bruker Analyser).
(§1) Therefore, the reported KD values are determined based on steady state analysis.

[2] = target: T2, Benefix (Pfizer Inc, USA), FIX (human, UniProt P00740 47-461); experiment: SPR, FIX (Benefix) captured on immobilised anti-GLA-FIX antibody, steady state analysis, 25 C
T2 construct: Bought product; also called FIX (Benefix®)
Procedure: Briefly, anti-GLA-FIX, prepared recombinantly as described above, was immobilised on a CM4 sensor chip or a Xantec HLC200M using standard amine coupling chemistry at pH 5. FIX (10 nM) was injected at a flow rate of 10 μL/min for 1 minute. Subsequently 1000, 100, 10, 1, 0.1 and 0 nM of VHH polypeptide compound were injected at a flow rate of 30 μL/min for 4 minutes to allow for binding to the FIX (Benefix®) followed by a flow of 5 minutes running buffer (10 mM HEPES, 150 mM NaCl, 5 mM CaCl₂), 0.05% (v/v) Surfactant P20, 1 mg/mL bovine serum albumin, pH 7.4) injection allowing for dissociation from FIX. The running buffer was also used for dilution of anti-FIX VHH polypeptide compounds. Regeneration of the chip was achieved using a regeneration buffer consisting of 50 mM EDTA in running buffer, 30 seconds contact time, and a 30 μL/min flow rate. The binding data were collected at 25° C. and were analysed according to a 1:1 model using BiaEvaluation 4.1 supplied by the manufacturer (Biacore AB, Uppsala).
as §1

[3] = target: T1, human plasma-derived FX (Haematologic …); experiment: cell-based or functional assay

T2 sequence (P00740 47-461 T194A limits assumed): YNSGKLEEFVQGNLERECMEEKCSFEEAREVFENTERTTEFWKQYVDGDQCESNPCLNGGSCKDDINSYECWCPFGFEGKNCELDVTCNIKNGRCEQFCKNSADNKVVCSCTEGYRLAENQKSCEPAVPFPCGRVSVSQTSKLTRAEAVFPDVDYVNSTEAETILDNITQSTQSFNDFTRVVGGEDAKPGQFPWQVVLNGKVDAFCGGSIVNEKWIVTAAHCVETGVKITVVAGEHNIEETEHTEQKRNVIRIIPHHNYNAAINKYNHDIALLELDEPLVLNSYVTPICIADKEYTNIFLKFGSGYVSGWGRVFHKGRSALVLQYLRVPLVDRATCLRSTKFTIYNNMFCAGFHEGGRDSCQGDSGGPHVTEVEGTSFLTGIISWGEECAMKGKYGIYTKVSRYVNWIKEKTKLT
T1 sequence (P00742 41-179, chain 1 of 2): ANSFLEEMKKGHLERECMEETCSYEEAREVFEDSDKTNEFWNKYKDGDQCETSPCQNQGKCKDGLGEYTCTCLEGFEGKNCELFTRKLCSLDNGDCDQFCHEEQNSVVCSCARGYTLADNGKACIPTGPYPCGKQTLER
T1 sequence (P00742 183-488, chain 2 of 2): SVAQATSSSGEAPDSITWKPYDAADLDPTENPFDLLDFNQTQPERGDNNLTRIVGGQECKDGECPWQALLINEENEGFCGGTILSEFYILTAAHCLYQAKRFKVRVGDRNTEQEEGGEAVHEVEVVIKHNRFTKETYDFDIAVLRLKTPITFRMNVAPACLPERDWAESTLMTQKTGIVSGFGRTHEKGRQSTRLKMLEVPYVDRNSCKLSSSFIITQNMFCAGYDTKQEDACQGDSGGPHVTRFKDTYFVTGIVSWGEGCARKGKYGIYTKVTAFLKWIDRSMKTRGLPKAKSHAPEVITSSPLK

Binder	Kd [1]	Kd [2]	KM (nM) of FX activation by 0.1 nM FIXa on phospholipid vesicles with 5 nM compound [3]	kcat/KM (1/(min * nM)) of FX activation by 0.1 nM FIXa with 5 nM compound [3]
Cmpd #4 (anti-FX/anti-FIX(a) VHH polypeptide derivative) (bispecific antibody, C18 diacid protractor (P3) via linker LP1 on Cys6 in C-term extension (SEQ ID NO: 7), Single chain of two VHH: anti-FX (N-terminal) and anti-FIX(a) (C-terminal)) DVQLVESGGGVVQPGGSLRLSCAASGRTHSRYAMGWFRQAPGKEREFVAAISRRGGSTNYADSVKGRFTISRDNSKNTVYLQMNSLRPEDTALYYCAADDSSGDGYLDYWGQGTLVTVSSGGGGSGGGSEVQLVESGGGVVQPGGSLRLSCAASGRTFNIYTMSWFRQAPGKEREFVAGLRWTDSSTEYADSVKGRFTISRDNSKNTVYLQMNSLRPEDTALYYCAADRSFLFAQALGATKNYEYWGQGTLVTVSSGGGGSCHHHHHH	229 nM	11.7 nM		
Cmpd #5 (anti-FX/anti-FIX(a) VHH polypeptide derivative) (bispecific antibody, C18 diacid protractor (P3) via linker LP1 on Cys6 in C-term extension (SEQ ID NO: 7), Single chain of two VHH: anti-FX (N-terminal) and anti-FIX(a) (C-terminal)) DVQLVESGGGVVQPGGSLQLSCAASGRTHSRYAMGWFRQAPGQEREFVAAISRRGGSTNYADSVKGRFTISRDNSKNTVYLQMDSLRPEDTALYYCAADDSSGDGYLDYWGQGTLVTVSSGGGGSGGGSEVQLVESGGGVVQPGGSLQLSCAASGRTFNIYTMSWFRQAPGQEREFVAGLRWTDSSTEYADSVKGRFTISRDNSKNTVYLQMDSLRPEDTALYYCAADRSFLFAQALGATKNYEYWGQGTLVTVSSGGGGSCHHHHHH	199 nM	2.7 nM		
Cmpd #14 (anti-FX/anti-FIX(a) VHH polypeptide derivative) (bispecific antibody, C16 diacid protractor (P2) via linker LP1 on Cys4 and Cys6 in C-term extension (SEQ ID NO: 9), Single chain of two VHH: anti-FX (N-terminal) and anti-FIX(a) (C-terminal); also called VHH1.14-L1-2-VHH2.14-E) DVQLVESGGGVVQPGGSLQLSCAASGGTKRRLAMGWFRQAPGQEREFVAAISRRGGSTNYADSVKGRFTISRDNSKNTVYLQMDSLRPEDTALYYCAADDSVGDGYLDYWGQGTLVTVSSGQAPGQEVQLVESGGGVVQPGGSLQLSCAASGRTFNIYTMSWFRQAPGQEREFVAGLRWTDSSTEYADSVKGRFTISRDNSKNTVYLQMDSLRPEDTALYYCAADRSFLFAQALGATKNYEYWGQGTLVTVSSGQACPC	42 nM	1.6 nM		

The remaining lines, values ahead:

Kd [1]	Kd [2]	KM (nM) of FX activation by 0.1 nM FIXa on phospholipid vesicles with 5 nM compound [3]	kcat/KM (1/(min * nM)) of FX activation by 0.1 nM FIXa with 5 nM compound [3]	Binder
		3.9 nM	4.5e+06 M⁻¹ s⁻¹	Cmpd #21 (anti-FX/anti-FIX(a) VHH polypeptide derivative) (bispecific antibody, C16 diacid protractor (P2) via linker LP1 on Cys4 and Cys6 in C-term extension (SEQ ID NO: 9)) DVQLVESGGGVVQPGGSLQLSCAASGGTKSRYAMGWFRQAPGQEREFVAAISRRGGSTNYADSVKGRFTISRDNSKNTVYLDMDDLRPEDTALYYCAADDSVGDGYLDYWGQGTLVTVSSGQAPGQEVQLVESGGGVVQPGGSLQLSCAASGRTFNIYTMSWFRQDPGQEREFVAGLRWTDSSTEYADSVKGRFTISRDNSKNTVYLQMDSLRPEDTALYYCAADRSFLFAQALGATKNYEYWGQGTLVTVSSGQACPC
		7.1 nM	2.33e+06 M⁻¹ s⁻¹	Cmpd #16 (anti-FX/anti-FIX(a) VHH polypeptide derivative) (bispecific antibody, C16 diacid protractor (P2) via linker LP1 on Cys4 and Cys6 in C-term extension (SEQ ID NO: 9)) DVQLVESGGGVVQPGGSLQLSCAASGGTKRRLAMGWFRQAPGQEREWVAAISRRGGSTNYADSVKGRFTISRDNSKNTVYLDMDDLRPEDTALYYCAADDSVGDGYLDYWGQGTLVTVSSGQAPGQEVQLVESGGGVVQPGGSLRLSCAASGRYFNIYTMSWFRQDPGQEREFVAGLRWTDSSTEYADSVKGRFTISRDNSKNTVYLQMNSLRPEDTALYYCAADRSFLFAQALGATKNYEYWGQGTLVTVSSGQACPC
		8.2 nM	5e+06 M⁻¹ s⁻¹	Cmpd #19 (anti-FX/anti-FIX(a) VHH polypeptide derivative) (bispecific antibody, C16 diacid protractor (P2) via linker LP1 on Cys4 and Cys6 in C-term extension (SEQ ID NO :9)) DVQLVESGGGVVQPGGSLQLSCAASGGTKSRYAMGWFRQAPGQEREWVAAISRRGGSTNYADSVKGRFTISRDNSKNTVYLQMDSLRPEDTALYYCAADDSVGDGYLDYWGQGTLVTVSSGQAPGQEVQLVESGGGVVQPGGSLQLSCAASGRTFNIYTMSWFRQAPGQEREFVAGLRWTDSSTEYADSVKGRFTISRDNSKNTVYLQMDSLRPEDTALYYCAADRSFLFAQALGATKNYEYWGQGTLVTVSSGQACPC
		9 nM	2.5e+06 M⁻¹ s⁻¹	Cmpd #17 (anti-FX/anti-FIX(a) VHH polypeptide derivative) (bispecific antibody, C16 diacid protractor (P2) via linker LP1 on Cys4 and Cys6 in C-term extension (SEQ ID NO: 9)) DVQLVESGGGVVQPGGSLQLSCAASGGTKSRYAMGWFRQAPGQEREWVAAISRRGGSTNYADSVKGRFTISRDNSKNTVYLDMDDLRPEDTALYYCAADDSVGDGYLDYWGQGTLVTVSSGQAPGQEVQLVESGGGVVQPGGSLQLSCAASGRTFNIYTMSWFRQDPGQEREFVAGLRWTDSSTEYADSVKGRFTISRDNSKNTVYLQMDSLRPEDTALYYCAADRSFLFAQALGATKNYEYWGQGTLVTVSSGQACPC
